Data as given in PMC6451933.

Molecular target: t-SNARE complex (syntaxin 1 and SNAP25) (UniProt Q16623)
Sequence (Q16623 whole entry, chain 1 of 2): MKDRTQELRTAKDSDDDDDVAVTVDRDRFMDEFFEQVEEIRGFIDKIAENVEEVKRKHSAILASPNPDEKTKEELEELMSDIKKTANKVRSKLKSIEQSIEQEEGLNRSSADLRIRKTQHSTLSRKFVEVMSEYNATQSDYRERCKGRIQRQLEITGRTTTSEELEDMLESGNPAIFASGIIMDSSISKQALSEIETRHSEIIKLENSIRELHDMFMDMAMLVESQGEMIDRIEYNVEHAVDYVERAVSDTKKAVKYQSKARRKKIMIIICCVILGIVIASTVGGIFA
Sequence (chain, as listed by the source, chain 2 of 2): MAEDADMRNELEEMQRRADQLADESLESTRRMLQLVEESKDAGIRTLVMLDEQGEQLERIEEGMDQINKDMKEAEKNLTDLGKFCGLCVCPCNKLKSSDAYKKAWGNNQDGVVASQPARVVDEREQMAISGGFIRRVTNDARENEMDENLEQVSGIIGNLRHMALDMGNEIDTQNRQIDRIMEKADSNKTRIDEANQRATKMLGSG

- reconstituted liposome lipid-mixing assay (NBD dequenching), basal fusion without Munc18-1 of v-liposomes with t-SNARE liposomes, against WT VAMP2: 25%
Substance: VAMP2 p.Ser75Pro variant (from UniProt P63027 1-116) (natural protein)
